The text below walks through data of patent publication US20260232759A1, “PEPTIDES THAT INHIBIT INFECTION BY SARS-COV-2, THE VIRUS THAT CAUSES COVID-19 DISEASE” (Wisconsin Alumni Research Foundation, priority 2021, published 2026).

No end group written: not given here.

In this test the target is SARS-CoV-2 Spike protein (SARS-CoV-2), P0DTC2. As to the kind of experiment: cell-based or functional assay.

B1: Bf APC/B3E (peptide)
peptide: DISQINASVVNIEYEIXKLEEVAXKLEESLIDLQELGSGSGC
modifications: not fully specified (C-terminus); also: α/β-peptide, β-residue positions not given here
Molecule B1 had an inhibition of S-mediated cell-cell fusion (β-Gal complementation), IC50 of 50 nM.
